Measured values reported in the Human Domainome abundance scans (Beltran et al. 2025).
± gives the uncertainty stated by the source.

B1: Protein piccolo, residues 1058 to 1114; numbered along this chain, Q9Y6V0 (parent)
chain: TCPLCKTELNIGSKDPPNFNTCTECKNQVCNLCGFNPTPHLTEIQEWLCLNCQTQRA

Variants of: B1
Experiment: abundance fitness (aPCA) (normalised: wild type 0, dead -1); higher = more abundant; growth selection in yeast, the domain comes from the species named
Conditions: Homo sapiens

TCPLCKTEHNIGSKDPPNFNTCTECKNQVCNLCGFNPTPHLTEIQEWLCLNCQTQRA [L9H] and TCPLCKTEQNIGSKDPPNFNTCTECKNQVCNLCGFNPTPHLTEIQEWLCLNCQTQRA [L9Q] are within error of each other in abundance fitness: -0.231 ± 0.15 for the first, -0.128 ± 0.11 for the second.

Going from TCPLCKTEANIGSKDPPNFNTCTECKNQVCNLCGFNPTPHLTEIQEWLCLNCQTQRA [L9A] to TCPLCKTEPNIGSKDPPNFNTCTECKNQVCNLCGFNPTPHLTEIQEWLCLNCQTQRA [L9P], the abundance fitness falls from 0.032 ± 0.086 to -0.197 ± 0.096.

TCPLCKTELNIGSKDPPNFNTCTECKNQVCILCGFNPTPHLTEIQEWLCLNCQTQRA [N31I] and TCPLCKTELNIGSKDPPNFNTCTECKNQVCELCGFNPTPHLTEIQEWLCLNCQTQRA [N31E] are within error of each other in abundance fitness: -0.121 ± 0.16 for the first, 0.148 ± 0.15 for the second.

TCPLCKTELNIGSKDPPNFNTCTECKNQVCWLCGFNPTPHLTEIQEWLCLNCQTQRA [N31W] and TCPLCKTELNIGSKDPPNFNTCTECKNQVCDLCGFNPTPHLTEIQEWLCLNCQTQRA [N31D] are within error of each other in abundance fitness: -0.19 ± 0.097 for the first, 0.003 ± 0.26 for the second.

TCPLCKTELNIGSKDPPNFNTCTECKNQVCNLCGFNPTPHVTEIQEWLCLNCQTQRA [L41V] and TCPLCKTELNIGSKDPPNFFTCTECKNQVCNLCGFNPTPHLTEIQEWLCLNCQTQRA [N20F] are within error of each other in abundance fitness: 0.044 ± 0.091 for the first, -0.051 ± 0.13 for the second.

First: TCPLCKTELNIGSKDPPNFYTCTECKNQVCNLCGFNPTPHLTEIQEWLCLNCQTQRA [N20Y]
Second: TCPLCKTELNIGSKDPPNFVTCTECKNQVCNLCGFNPTPHLTEIQEWLCLNCQTQRA [N20V]
The abundance fitness of the first is lower: -0.337 ± 0.15 for the first, 0.07 ± 0.097 for the second.

TCPLCKTELNIGSKDPPNFNTCTECKNQVCNLCGFNPTPHLTEIQEWLCLNEQTQRA [C52E] and TCPLCKTELNIGSKDPPNFNTCTECKNQVCNLCGFNPTPHLTEIQEWLCLNKQTQRA [C52K] are within error of each other in abundance fitness: -0.448 ± 0.16 for the first, -0.801 ± 0.29 for the second.

TCPLCKTELNIGSKDPPNFNTCTECHNQVCNLCGFNPTPHLTEIQEWLCLNCQTQRA [K26H] and TCPLCKTELNIGSKDPPNFNTCTECGNQVCNLCGFNPTPHLTEIQEWLCLNCQTQRA [K26G] are within error of each other in abundance fitness: -0.253 ± 0.29 for the first, 0.139 ± 0.11 for the second.

Going from TCPLCKGELNIGSKDPPNFNTCTECKNQVCNLCGFNPTPHLTEIQEWLCLNCQTQRA [T7G] to TCPLCKWELNIGSKDPPNFNTCTECKNQVCNLCGFNPTPHLTEIQEWLCLNCQTQRA [T7W], the abundance fitness falls from -0.011 ± 0.072 to -0.797 ± 0.093.

TCPLCKHELNIGSKDPPNFNTCTECKNQVCNLCGFNPTPHLTEIQEWLCLNCQTQRA [T7H] and TCPLCKTELNIGSKDSPNFNTCTECKNQVCNLCGFNPTPHLTEIQEWLCLNCQTQRA [P16S] are within error of each other in abundance fitness: -0.168 ± 0.14 for the first, -0.057 ± 0.1 for the second.

TCPLCHTELNIGSKDPPNFNTCTECKNQVCNLCGFNPTPHLTEIQEWLCLNCQTQRA [K6H] and TCPLCKTELDIGSKDPPNFNTCTECKNQVCNLCGFNPTPHLTEIQEWLCLNCQTQRA [N10D] are within error of each other in abundance fitness: -0.142 ± 0.15 for the first, -0.245 ± 0.16 for the second.

LCPLCKTELNIGSKDPPNFNTCTECKNQVCNLCGFNPTPHLTEIQEWLCLNCQTQRA [T1L] and TCPLCKTELNIGSFDPPNFNTCTECKNQVCNLCGFNPTPHLTEIQEWLCLNCQTQRA [K14F] are within error of each other in abundance fitness: -0.078 ± 0.27 for the first, -0.36 ± 0.13 for the second.

Going from TCPLCKTELNIGSIDPPNFNTCTECKNQVCNLCGFNPTPHLTEIQEWLCLNCQTQRA [K14I] to TCPLCKTELNIGSKDPPNFNTCTECKNQVCNLCGFNPTPHLTEAQEWLCLNCQTQRA [I44A], the abundance fitness rises from -0.653 ± 0.21 to -0.022 ± 0.17.

TCPLCKTELNIGSKDPPNFNTCTECKNQVCNLCGFNPTPHLTENQEWLCLNCQTQRA [I44N] and TCPLCKTELNIGSKDPPNFNTCTECKNQVCNLCGFNPTPHLTEFQEWLCLNCQTQRA [I44F] are within error of each other in abundance fitness: -0.144 ± 0.24 for the first, 0.155 ± 0.18 for the second.

TCPLCKTELNIGSKDPPNFNTCTECKNQVCNLCGFNPTPHLTEKQEWLCLNCQTQRA [I44K] and TCPLCKTELNIGSKDPPNFNTCSECKNQVCNLCGFNPTPHLTEIQEWLCLNCQTQRA [T23S] are within error of each other in abundance fitness: 0.247 ± 0.46 for the first, 0.003 ± 0.1 for the second.

TCPLCKTELNIGSKDPPNFNTCTECKNQVCNLCGFNPTPCLTEIQEWLCLNCQTQRA [H40C] and TCPLCKTELNIGSKDPPNFNTCTECKNQVCNLCGCNPTPHLTEIQEWLCLNCQTQRA [F35C] are within error of each other in abundance fitness: 0.046 ± 0.13 for the first, 0.019 ± 0.13 for the second.

TCPLCKTELNIGSKDPPNFNTCTECKNQVCNLCGQNPTPHLTEIQEWLCLNCQTQRA [F35Q] and TCPLCKTELNIGSKDPPNFNTCTECKNQVCNLCGGNPTPHLTEIQEWLCLNCQTQRA [F35G] are within error of each other in abundance fitness: 0.25 ± 0.15 for the first, 0.175 ± 0.096 for the second.

TCPLCKTELNIGSKDPPNFNTCTECKNQFCNLCGFNPTPHLTEIQEWLCLNCQTQRA [V29F] and TCPLCKTELNIGSKDPPNFNTCTECKNQRCNLCGFNPTPHLTEIQEWLCLNCQTQRA [V29R] are within error of each other in abundance fitness: -0.217 ± 0.075 for the first, -0.148 ± 0.076 for the second.

TCPLCKTELNIGSKDPPNFNTCTECKNQACNLCGFNPTPHLTEIQEWLCLNCQTQRA [V29A] and TCPLCKTELNIGSKDPPNFNTCTECKNQGCNLCGFNPTPHLTEIQEWLCLNCQTQRA [V29G] are within error of each other in abundance fitness: -0.064 ± 0.083 for the first, -0.198 ± 0.078 for the second.

Going from TCPLCKTELNIGSKDPPNFNTCTECKNQQCNLCGFNPTPHLTEIQEWLCLNCQTQRA [V29Q] to TCPLCKTELNIGSKDPPNFNTCTECKLQVCNLCGFNPTPHLTEIQEWLCLNCQTQRA [N27L], the abundance fitness rises from -0.212 ± 0.099 to 0.157 ± 0.088.

TCPLCKTELNIGSKDPPNFNTCTECKDQVCNLCGFNPTPHLTEIQEWLCLNCQTQRA [N27D] and TCPLCKTELNIGSKDPPNFNTCTECKNQVCNLCGFNPTPHLTEIQEWLCKNCQTQRA [L50K] are within error of each other in abundance fitness: -0.094 ± 0.12 for the first, 0.078 ± 0.19 for the second.

TCPLCKTELNIGSKDPPNFNTCTECKNQVCNLCGFNPTPHLTEIQEWLCTNCQTQRA [L50T] and TCPLCKTELNIHSKDPPNFNTCTECKNQVCNLCGFNPTPHLTEIQEWLCLNCQTQRA [G12H] are within error of each other in abundance fitness: 0.208 ± 0.14 for the first, -0.182 ± 0.39 for the second.

Compared with TCPLCKTELNITSKDPPNFNTCTECKNQVCNLCGFNPTPHLTEIQEWLCLNCQTQRA [G12T], TCPLCKTELNIGSKDPPNFNTCTECKNQVCNLCGFNPTPHLTEIQEWLNLNCQTQRA [C49N] is lower in abundance fitness: 0.035 ± 0.14 for the first, -0.618 ± 0.28 for the second.
